The target in one assay is CD19 (UniProt P15391). Put plainly: cell-based or functional assay.
Molecule KTKKQRKQMHNHLR (receptor, part only) [hingeNotch STS variant with NRG2 STS (…)] came in with an Average MFI Difference (MFI of ON - MFI of OFF) (BFP reporter; no CAR stimulation) of 1260 MFI; an Average MFI Difference (MFI of ON - MFI of OFF) (BFP reporter; with CAR stimulation by ALPPL2+ K562) of 2200 MFI; an Average Signal To Noise (BFP reporter MFI, CD19+ K562 vs K562; no CAR stimulation) of 8.32; an Average Signal To Noise (BFP reporter MFI, CD19+ K562 vs K562; with CAR stimulation by ALPPL2+ K562) of 15.8.

As for RRRSKYSKAK (receptor, part only) [hingeNotch STS variant with EPHA3 STS (…)], the Average MFI Difference (MFI of ON - MFI of OFF) (BFP reporter; no CAR stimulation) is 1290 MFI; the Average MFI Difference (MFI of ON - MFI of OFF) (BFP reporter; with CAR stimulation by ALPPL2+ K562) is 2270 MFI; the Average Signal To Noise (BFP reporter MFI, CD19+ K562 vs K562; no CAR stimulation) was determined as 2.97; the Average Signal To Noise (BFP reporter MFI, CD19+ K562 vs K562; with CAR stimulation by ALPPL2+ K562) turned out to be 6.31.

In turn, RRKREH (receptor, part only) [hingeNotch STS variant with Notch3 STS (RRKREH)] registered an Average MFI Difference (MFI of ON - MFI of OFF) (BFP reporter; no CAR stimulation) of 1190 MFI; an Average MFI Difference (MFI of ON - MFI of OFF) (BFP reporter; with CAR stimulation by ALPPL2+ K562) of 1990 MFI; an Average Signal To Noise (BFP reporter MFI, CD19+ K562 vs K562; no CAR stimulation) of 12.8; an Average Signal To Noise (BFP reporter MFI, CD19+ K562 vs K562; with CAR stimulation by ALPPL2+ K562) of 29.2.

In the case of HPLRKRRKRKKK (receptor, part only) [hingeNotch STS variant with BTC STS (…)], the Average MFI Difference (MFI of ON - MFI of OFF) (BFP reporter; no CAR stimulation) was 480 MFI; the Average MFI Difference (MFI of ON - MFI of OFF) (BFP reporter; with CAR stimulation by ALPPL2+ K562) is 423 MFI; the Average Signal To Noise (BFP reporter MFI, CD19+ K562 vs K562; no CAR stimulation) was found to be 1.23; the Average Signal To Noise (BFP reporter MFI, CD19+ K562 vs K562; with CAR stimulation by ALPPL2+ K562) came to 1.71.

HRRCKHRTGK (receptor, part only) [hingeNotch STS variant with IL1R2 STS (…)]: the Average MFI Difference (MFI of ON - MFI of OFF) (BFP reporter; no CAR stimulation) amounted to 980 MFI; the Average MFI Difference (MFI of ON - MFI of OFF) (BFP reporter; with CAR stimulation by ALPPL2+ K562) stood at 2030 MFI; the Average Signal To Noise (BFP reporter MFI, CD19+ K562 vs K562; no CAR stimulation) came to 2.41; the Average Signal To Noise (BFP reporter MFI, CD19+ K562 vs K562; with CAR stimulation by ALPPL2+ K562) was found to be 4.78.

Another assay addresses CD19 (UniProt P15391). The experiment in a line: cell-based or functional assay. This is another data set of the same source.
On to “hingeNotch STS variant with CDH2 STS (…) (receptor)”, for which the Average MFI Difference (MFI of ON - MFI of OFF) (BFP reporter; no CAR stimulation) is 1130 MFI; the Average MFI Difference (MFI of ON - MFI of OFF) (BFP reporter; with CAR stimulation by ALPPL2+ K562) is 2830 MFI; the Average Signal To Noise (BFP reporter MFI, CD19+ K562 vs K562; no CAR stimulation) amounted to 2.26; the Average Signal To Noise (BFP reporter MFI, CD19+ K562 vs K562; with CAR stimulation by ALPPL2+ K562) amounted to 4.24.

Regarding “hingeNotch STS variant with PTPRF STS (KRKRTH) (receptor)”, the Average MFI Difference (MFI of ON - MFI of OFF) (BFP reporter; no CAR stimulation) stood at 1180 MFI; the Average MFI Difference (MFI of ON - MFI of OFF) (BFP reporter; with CAR stimulation by ALPPL2+ K562) was determined as 2570 MFI; the Average Signal To Noise (BFP reporter MFI, CD19+ K562 vs K562; no CAR stimulation) stood at 10.5; the Average Signal To Noise (BFP reporter MFI, CD19+ K562 vs K562; with CAR stimulation by ALPPL2+ K562) was 50.8.

Molecule “hingeNotch STS variant with AGER STS (RRQRR) (receptor)” had an Average MFI Difference (MFI of ON - MFI of OFF) (BFP reporter; no CAR stimulation) of 1130 MFI; an Average MFI Difference (MFI of ON - MFI of OFF) (BFP reporter; with CAR stimulation by ALPPL2+ K562) of 1790 MFI; an Average Signal To Noise (BFP reporter MFI, CD19+ K562 vs K562; no CAR stimulation) of 11.9; an Average Signal To Noise (BFP reporter MFI, CD19+ K562 vs K562; with CAR stimulation by ALPPL2+ K562) of 106.

“hingeNotch STS variant with Notch 2 STS (KRKRKH) (receptor)” registered an Average MFI Difference (MFI of ON - MFI of OFF) (BFP reporter; no CAR stimulation) of 1260 MFI; an Average MFI Difference (MFI of ON - MFI of OFF) (BFP reporter; with CAR stimulation by ALPPL2+ K562) of 4190 MFI; an Average Signal To Noise (BFP reporter MFI, CD19+ K562 vs K562; no CAR stimulation) of 5.24; an Average Signal To Noise (BFP reporter MFI, CD19+ K562 vs K562; with CAR stimulation by ALPPL2+ K562) of 15.5.

Molecule “hingeNotch STS variant with CSF1R STS (KYKQKPK) (receptor)” showed an Average MFI Difference (MFI of ON - MFI of OFF) (BFP reporter; no CAR stimulation) of 801 MFI; an Average MFI Difference (MFI of ON - MFI of OFF) (BFP reporter; with CAR stimulation by ALPPL2+ K562) of 1510 MFI; an Average Signal To Noise (BFP reporter MFI, CD19+ K562 vs K562; no CAR stimulation) of 3.09; an Average Signal To Noise (BFP reporter MFI, CD19+ K562 vs K562; with CAR stimulation by ALPPL2+ K562) of 5.45.

With “hingeNotch STS variant with NRG1 STS (…) (receptor)”, the Average MFI Difference (MFI of ON - MFI of OFF) (BFP reporter; no CAR stimulation) amounted to 806 MFI; the Average MFI Difference (MFI of ON - MFI of OFF) (BFP reporter; with CAR stimulation by ALPPL2+ K562) was determined as 637 MFI; the Average Signal To Noise (BFP reporter MFI, CD19+ K562 vs K562; no CAR stimulation) is 9.42; the Average Signal To Noise (BFP reporter MFI, CD19+ K562 vs K562; with CAR stimulation by ALPPL2+ K562) was 25.

As to “hingeNotch STS variant with Jag2 STS (…) (receptor)”, the Average MFI Difference (MFI of ON - MFI of OFF) (BFP reporter; no CAR stimulation) was determined as 1320 MFI; the Average MFI Difference (MFI of ON - MFI of OFF) (BFP reporter; with CAR stimulation by ALPPL2+ K562) stood at 3320 MFI; the Average Signal To Noise (BFP reporter MFI, CD19+ K562 vs K562; no CAR stimulation) stood at 5.09; the Average Signal To Noise (BFP reporter MFI, CD19+ K562 vs K562; with CAR stimulation by ALPPL2+ K562) came to 21.4.

“hingeNotch STS variant with EPCAM STS (…) (receptor)” returned an Average MFI Difference (MFI of ON - MFI of OFF) (BFP reporter; no CAR stimulation) of 864 MFI; an Average MFI Difference (MFI of ON - MFI of OFF) (BFP reporter; with CAR stimulation by ALPPL2+ K562) of 2370 MFI; an Average Signal To Noise (BFP reporter MFI, CD19+ K562 vs K562; no CAR stimulation) of 1.64; an Average Signal To Noise (BFP reporter MFI, CD19+ K562 vs K562; with CAR stimulation by ALPPL2+ K562) of 2.48.

In turn, “hingeNotch STS variant with Notch 4 STS (RRRREH) (receptor)” displayed an Average MFI Difference (MFI of ON - MFI of OFF) (BFP reporter; no CAR stimulation) of 1020 MFI; an Average MFI Difference (MFI of ON - MFI of OFF) (BFP reporter; with CAR stimulation by ALPPL2+ K562) of 1480 MFI; an Average Signal To Noise (BFP reporter MFI, CD19+ K562 vs K562; no CAR stimulation) of 10.3; an Average Signal To Noise (BFP reporter MFI, CD19+ K562 vs K562; with CAR stimulation by ALPPL2+ K562) of 24.1.

Regarding “hingeNotch STS variant with LRP1B STS (…) (receptor)”, the Average MFI Difference (MFI of ON - MFI of OFF) (BFP reporter; no CAR stimulation) amounted to 1010 MFI; the Average MFI Difference (MFI of ON - MFI of OFF) (BFP reporter; with CAR stimulation by ALPPL2+ K562) was found to be 2560 MFI; the Average Signal To Noise (BFP reporter MFI, CD19+ K562 vs K562; no CAR stimulation) was 2.32; the Average Signal To Noise (BFP reporter MFI, CD19+ K562 vs K562; with CAR stimulation by ALPPL2+ K562) came out at 10.3.

In the case of “hingeNotch STS variant with KL STS (KKGRRSYK) (receptor)”, the Average MFI Difference (MFI of ON - MFI of OFF) (BFP reporter; no CAR stimulation) was determined as 880 MFI; the Average MFI Difference (MFI of ON - MFI of OFF) (BFP reporter; with CAR stimulation by ALPPL2+ K562) is 1570 MFI; the Average Signal To Noise (BFP reporter MFI, CD19+ K562 vs K562; no CAR stimulation) came to 3.72; the Average Signal To Noise (BFP reporter MFI, CD19+ K562 vs K562; with CAR stimulation by ALPPL2+ K562) is 6.53.

In turn, “hingeNotch STS variant with CXCL16 STS (KRRR) (receptor)” yielded an Average MFI Difference (MFI of ON - MFI of OFF) (BFP reporter; no CAR stimulation) of 1290 MFI; an Average MFI Difference (MFI of ON - MFI of OFF) (BFP reporter; with CAR stimulation by ALPPL2+ K562) of 1690 MFI; an Average Signal To Noise (BFP reporter MFI, CD19+ K562 vs K562; no CAR stimulation) of 14.4; an Average Signal To Noise (BFP reporter MFI, CD19+ K562 vs K562; with CAR stimulation by ALPPL2+ K562) of 27.9.

Molecule “hingeNotch STS variant with GHR STS (KQQRIK) (receptor)” displayed an Average MFI Difference (MFI of ON - MFI of OFF) (BFP reporter; no CAR stimulation) of 141 MFI; an Average MFI Difference (MFI of ON - MFI of OFF) (BFP reporter; with CAR stimulation by ALPPL2+ K562) of -51.5 MFI; an Average Signal To Noise (BFP reporter MFI, CD19+ K562 vs K562; no CAR stimulation) of 2.22; an Average Signal To Noise (BFP reporter MFI, CD19+ K562 vs K562; with CAR stimulation by ALPPL2+ K562) of 2.67.

In turn, “hingeNotch STS variant with DAG1 STS (RKKRKGK) (receptor)” had an Average MFI Difference (MFI of ON - MFI of OFF) (BFP reporter; no CAR stimulation) of 2520 MFI; an Average MFI Difference (MFI of ON - MFI of OFF) (BFP reporter; with CAR stimulation by ALPPL2+ K562) of 4640 MFI; an Average Signal To Noise (BFP reporter MFI, CD19+ K562 vs K562; no CAR stimulation) of 2.82; an Average Signal To Noise (BFP reporter MFI, CD19+ K562 vs K562; with CAR stimulation by ALPPL2+ K562) of 7.4.

“hingeNotch STS variant with KCNE3 STS (RSRKVDKR) (receptor)” registered an Average MFI Difference (MFI of ON - MFI of OFF) (BFP reporter; no CAR stimulation) of 976 MFI; an Average MFI Difference (MFI of ON - MFI of OFF) (BFP reporter; with CAR stimulation by ALPPL2+ K562) of 1900 MFI; an Average Signal To Noise (BFP reporter MFI, CD19+ K562 vs K562; no CAR stimulation) of 9.78; an Average Signal To Noise (BFP reporter MFI, CD19+ K562 vs K562; with CAR stimulation by ALPPL2+ K562) of 62.5.

The record behind these values is US20220133797A1.
